± gives the standard deviation.
Assay: protein stability index of a GFP-peptide fusion (GPS, HEK-293T) (PSI 1-6); higher = more stable
[1] = treatment: DMSO, c terminus: a fixed tail appended
[2] = treatment: MLN4924 1 uM, 8 h, c terminus: a fixed tail appended
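Further: 24-mer peptide tiles fused after GFP, lentivirally expressed, FACS-sorted into six equal bins by GFP/DsRed ratio, decoded by Illumina sequencing, PSI is the read-weighted mean bin number.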

## PAMSPYWRTWMTITQSWQVSVRVQ [C22orf15]
[1]
  protein stability index: 2.51 ± 0.41
[2]
  protein stability index: 2.74 ± 0.3

## DVKDKETTENENTKFEVRLLRDPA [CHGB]
[1]
  protein stability index: 4.33 ± 0.41
[2]
  protein stability index: 4.7 ± 0.3

## PVLAVVFIICIVIAILLYKSKPDR [PTPRD]
[1]
  protein stability index: 2.94 ± 1.7
[2]
  protein stability index: 2.87 ± 0.63

## KQEMGTYLRFIVSRMKERAIDLNK [ZMYND11]
[1]
  protein stability index: 2.9 ± 0.73
[2]
  protein stability index: 2.71 ± 0.69

## LRFLLDQVQLGLRCCGAASYQDWQ [TSPAN10]
[1]
  protein stability index: 3.05 ± 0.49
[2]
  protein stability index: 3.22 ± 0.49

## SGEEFYMLTRRVLQLETVLEGVVS [PKD2L1]
[1]
  protein stability index: 2.17 ± 0.45
[2]
  protein stability index: 2.56 ± 0.17

## QISIYGVKILEPKTKEVQHNCQLH [GULP1]
[1]
  protein stability index: 2.58 ± 0.37
[2]
  protein stability index: 2.85 ± 0.39

## KRSSRRVQRHNSFSPNSPQFNVSG [NECAB1]
[1]
  protein stability index: 4.12 ± 0.19
[2]
  protein stability index: 4.27 ± 0.13

## HILKKYYGNGMRKSPEMPVILEVS [RTP4]
[1]
  protein stability index: 1.99 ± 0.51
[2]
  protein stability index: 2.2 ± 0.37

## ENLFTGEDLDELEEELNTLDLEE [ZC3H15]
treatment: DMSO, c terminus: native
  protein stability index: 4.26 ± 0.32
treatment: MLN4924 1 uM, 8 h, c terminus: native
  protein stability index: 4.65 ± 0.32

## QMAKKAEAFQLYQEAAQLDMLLEK [FLOT1]
[1]
  protein stability index: 2.73 ± 0.36
[2]
  protein stability index: 3.21 ± 0.64

## ACGVAMELYVFGGVRSREDAQGSE [GAN]
[1]
  protein stability index: 2.22 ± 0.25
[2]
  protein stability index: 2.35 ± 0.096

## VEEGDSRFLANEVLQENYTHLPKA [WEE1]
[1]
  protein stability index: 4.74 ± 0.2
[2]
  protein stability index: 4.81 ± 0.13

## SLLPGAVEQPQPQFISRFLEGQSG [NEK8]
[1]
  protein stability index: 3.5 ± 0.18
[2]
  protein stability index: 3.73 ± 0.16

## SLQPRRSIAFRLRLASFDSSGKLI [GMCL1]
[1]
  protein stability index: 2.62 ± 0.44
[2]
  protein stability index: 2.39 ± 0.27

## EKELISMECYDIYSKTWTKQPDLT [GAN]
[1]
  protein stability index: 3.21 ± 0.25
[2]
  protein stability index: 3.28 ± 0.36

## LVMPLEEKLTKITRTGPSAWETKK [PCMTD2]
[1]
  protein stability index: 3.79 ± 0.21
[2]
  protein stability index: 3.75 ± 0.23

## RNLAKRRRTYLGGAAGRSQEPEVP [RSPH3]
[1]
  protein stability index: 4.38 ± 0.26
[2]
  protein stability index: 4.32 ± 0.2

## IKAEPASPDSPKGSSETETEPPVA [ESRRA]
[1]
  protein stability index: 5.58 ± 0.17
[2]
  protein stability index: 5.62 ± 0.11

## TKRVRQLLDLDPEVECLKANTNEV [GOLPH3]
[1]
  protein stability index: 4.29 ± 0.32
[2]
  protein stability index: 4.62 ± 0.22

## VQDYSYFFFLRMDENYNLLPHGVN [CCDC3]
[1]
  protein stability index: 2.38 ± 0.48
[2]
  protein stability index: 2.48 ± 0.37

## LIKDAIVSTQPAMMVNLRACSAPG [C2CD2L]
[1]
  protein stability index: 2.82 ± 0.26
[2]
  protein stability index: 2.54 ± 0.31

## GQILELPWKEETFLVLQSLLERQV [FANCE]
[1]
  protein stability index: 1.9 ± 0.35
[2]
  protein stability index: 2.1 ± 0.34

## LKTQMKMSLKCLAARAVRANDINY [FEM1B]
[1]
  protein stability index: 3.02 ± 0.44
[2]
  protein stability index: 2.67 ± 0.16

## ADHGEPIGRGTKVILHLKEDQTEY [HSP90AB1]
[1]
  protein stability index: 4.76 ± 0.2
[2]
  protein stability index: 4.89 ± 0.29

## PVDAEALELHDYHDIIKHPMDLST [BRD3]
[1]
  protein stability index: 4.63 ± 0.34
[2]
  protein stability index: 4.67 ± 0.32

## NNCAFLESSAKSKINVNEIFYDLV [RAP1B]
[1]
  protein stability index: 2.44 ± 0.45
[2]
  protein stability index: 2.07 ± 0.34

## NFVHRFPFVAVSIGFAVNKKIEFG [IMPA1]
[1]
  protein stability index: 2.91 ± 0.76
[2]
  protein stability index: 2.77 ± 0.61

## LYVSLHRYDHGTFFPMGDEGASSQ [HDAC6]
[1]
  protein stability index: 2.17 ± 0.51
[2]
  protein stability index: 2.31 ± 0.28

## DSACDESSCIPKAFGNPKFALQGL [IRX6]
[1]
  protein stability index: 3.62 ± 0.24
[2]
  protein stability index: 3.6 ± 0.23

## ESLDYDRCINDPYLEVLETMDNKK [CLCN6]
[1]
  protein stability index: 5.21 ± 0.25
[2]
  protein stability index: 5.29 ± 0.37

## GKAFSQNSGLINHQRIHTGEKPYE [ZNF24]
[1]
  protein stability index: 3.86 ± 0.19
[2]
  protein stability index: 4.33 ± 0.42

## EQEPELSFLKQKEQLEAEAQALRQ [PBXIP1]
[1]
  protein stability index: 5.42 ± 0.19
[2]
  protein stability index: 5.29 ± 0.21

## EDHNENGHTPLMEAGSAGHVEVAR [ANKRD17]
[1]
  protein stability index: 5.63 ± 0.12
[2]
  protein stability index: 5.36 ± 0.12

## LHSISDSVLFLQEFGALMSNYSLP [TRIM29]
[1]
  protein stability index: 2.41 ± 0.43
[2]
  protein stability index: 2.12 ± 0.26

## PPKAPPPVIKIPECPSMGTNEAAC [RHOBTB1]
[1]
  protein stability index: 4.71 ± 0.23
[2]
  protein stability index: 4.86 ± 0.2

## GAVVLGAESHASKDVAIDMMDSRT [STX5]
[1]
  protein stability index: 4.67 ± 0.2
[2]
  protein stability index: 4.64 ± 0.44

## QGNKKEHVIHIIDFGLAKEYIDPE [CSNK1G1]
[1]
  protein stability index: 2.5 ± 0.16
[2]
  protein stability index: 2.81 ± 0.24

## QLSHIKAKIRAKIPGTGALASAAA [RTN2]
[1]
  protein stability index: 3.07 ± 0.21
[2]
  protein stability index: 3.09 ± 0.41

## IKLFACYNDGVINLLEKFFEMKKG [SNAP91]
[1]
  protein stability index: 2.39 ± 0.57
[2]
  protein stability index: 2.48 ± 0.37

## SRRSGKTSAVLKAGRQSVSGRKNS [C6orf223]
[1]
  protein stability index: 4.64 ± 0.28
[2]
  protein stability index: 4.78 ± 0.25

## EEGESLLCLACSAGYYELAQVLLA [ANKRD17]
[1]
  protein stability index: 2.17 ± 0.4
[2]
  protein stability index: 2.39 ± 0.25

## PNINKISMQAVLDYLYTKQLSPNL [RHOBTB1]
[1]
  protein stability index: 2.25 ± 0.68
[2]
  protein stability index: 2.16 ± 0.31

## QELVDYVNARQKQGIYEEYEDIRR [PTPN9]
[1]
  protein stability index: 3.88 ± 0.24
[2]
  protein stability index: 3.86 ± 0.2

## FPSDHLGDLGDPFHLGLEDILMEE [TFE3]
[1]
  protein stability index: 3.82 ± 0.19
[2]
  protein stability index: 4.04 ± 0.4
